From patent publication US20230203178A1 (SICHUAN KELUN BIOTECH BIOPHARMACEUTICAL, published 2023)

Tests used:
[1] = target: T1, CD19 expressed on Nalm6 cells (UniProt P15391 20-556, limits assumed); experiment: cell-based or functional assay
T1 sequence (looked up): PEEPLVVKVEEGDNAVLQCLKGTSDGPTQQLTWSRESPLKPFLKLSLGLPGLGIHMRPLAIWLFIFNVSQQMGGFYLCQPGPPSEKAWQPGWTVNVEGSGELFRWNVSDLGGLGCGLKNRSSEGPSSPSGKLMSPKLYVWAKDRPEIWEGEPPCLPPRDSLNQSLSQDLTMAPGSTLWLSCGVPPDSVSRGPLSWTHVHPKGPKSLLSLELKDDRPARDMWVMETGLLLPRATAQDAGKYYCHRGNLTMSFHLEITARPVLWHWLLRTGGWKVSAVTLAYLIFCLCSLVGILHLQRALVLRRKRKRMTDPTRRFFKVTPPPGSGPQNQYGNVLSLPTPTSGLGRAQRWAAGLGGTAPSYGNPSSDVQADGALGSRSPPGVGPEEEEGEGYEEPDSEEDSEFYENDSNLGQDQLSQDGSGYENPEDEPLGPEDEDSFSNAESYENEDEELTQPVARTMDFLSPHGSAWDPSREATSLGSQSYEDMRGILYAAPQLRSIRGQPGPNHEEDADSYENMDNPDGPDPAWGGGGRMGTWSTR

human CD19 (antigen) = target: T2, human CD19 (antigen) (human, UniProt P15391 20-291, limits assumed); experiment: flow cytometry of lentivirus-transduced T cells labelled with antigen or anti-CD19 antibody, 48 h after transduction; percent positive cells
T2 sequence (looked up): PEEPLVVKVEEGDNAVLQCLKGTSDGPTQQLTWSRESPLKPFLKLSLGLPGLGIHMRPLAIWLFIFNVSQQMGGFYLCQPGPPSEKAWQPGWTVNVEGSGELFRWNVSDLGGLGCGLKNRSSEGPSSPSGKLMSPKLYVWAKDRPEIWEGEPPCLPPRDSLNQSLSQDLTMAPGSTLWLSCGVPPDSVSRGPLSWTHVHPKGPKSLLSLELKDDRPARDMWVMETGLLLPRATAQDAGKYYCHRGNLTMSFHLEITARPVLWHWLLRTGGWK
Excerpt: (§1) The nucleic acid sequence encoding the CAR was expressed under the drive of a promoter, therefore the lentivirus-transfected T cells could be labeled with an antigen or anti-CD19 antibody and measured by flow cytometry, to reflect the expression level of the CAR on the surface of the T cells.

human BCMA (antigen) = target: T3, human BCMA (antigen) (human, UniProt Q02223 1-54, limits assumed); experiment: flow cytometry of lentivirus-transduced T cells labelled with antigen, 48 h after transduction; percent positive cells
T3 construct: Antigen coupled to the CM5 chip in SPR; also called B-cell maturation antigen; TNFRF17
T3 sequence (looked up): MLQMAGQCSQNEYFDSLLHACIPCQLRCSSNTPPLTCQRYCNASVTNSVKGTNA
Excerpt: as §1

[2] = target: T4, BCMA expressed on target cells (CHO-K1-BCMA recombinant cell line; MM.1S; RPMI8226) (human, UniProt Q02223 1-184); experiment: cell-based or functional assay
T4 sequence (looked up): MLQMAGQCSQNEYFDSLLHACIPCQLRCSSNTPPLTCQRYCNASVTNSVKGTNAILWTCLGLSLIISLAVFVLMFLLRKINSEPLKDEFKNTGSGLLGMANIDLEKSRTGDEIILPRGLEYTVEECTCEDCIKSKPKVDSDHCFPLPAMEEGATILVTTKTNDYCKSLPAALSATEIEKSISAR

B1: H-CD19 CAR (other)
chain: QVTLRESGPALVKPTQTLTLTCTFSGVSLPDYGVSWIRQPPGKALEWLAVIWGSETTYYNSALKSRLTISKDTSKNQVVLTMTNMDPVDTATYYCAKHYYYGGSYAMDYWGQGTTVTVSSGGGGSGGGGSGGGGSEIVLTQSPATLSLSPGERATLSCRASQDISKYLNWYQQKPGQAPRLLIYHTSRLHSGIPDRFSGSGSGTDFTLTISRLEPEDIAVYYCQQGNTLPYTFGQGTKLEITTTPAPRPPTPAPTIASQPLSLRPEACRPAAGGAVHTRGLDFACDIYIWAPLAGTCGVLLLSLVITLYCKRGRKKLLYIFKQPFMRPVQTTQEEDGCSCRFPEEEEGGCELRVKFSRSADAPAYKQGQNQLYNELNLGRREEYDVLDKRRGRDPEMGGKPRRKNPQEGLYNELQKDKMAEAYSEIGMKGERRRGKGHDGLYQGLSTATKDTYDALHMQALPPR
notes: Chimeric antigen receptor on human T cells; built here from its parts without the signal peptide; also called H-CD19 CAR-T; hCD19 CAR-T
For B1, the “lysis rate of Nalm6-luc cells by CAR-T cells, ratio 0.25:1” value [1] was 48%, the “lysis rate of Nalm6-luc cells by CAR-T cells, ratio 0.5:1” value [1] was 55% and the “lysis rate of Nalm6-luc cells by CAR-T cells, ratio 1:1” value [1] was 72.8%. The “lysis rate of Nalm6-luc cells by CAR-T cells, ratio 2:1” value [1] was 86.4%, the “Positive rate of binding to CD19” value (human CD19 (antigen)) was 14.7% and the “Positive rate of binding to BCMA” value (human BCMA (antigen)) was 0.98%.

B2: TanCAR 01 (other)
chain: DIVMTQSPLSLPVTPGEPASISCRSSQSLVHSNGNTFLHWYLQKPGQSPQLLIYKVSNRFSGVPDRFSGSGSGTDFTLKISRVEAEDVGVYYCMQSTHVLTFGGGTKLEIKRAGGGGSGGGGSGGGGSQVQLVQSGAEVKKPGASVKVSCKASGYTFTDYLMHWVRQAPGQGLEWMGWINTETGEPTYADDFKGRVTMTRDTSTSTVYMELSSLRSEDTAVYYCAPSLYYGYSWFTYWGQGTLVTVSGGGGSGGGGSGGGGSGGGGSQVTLRESGPALVKPTQTLTLTCTFSGVSLPDYGVSWIRQPPGKALEWLAVIWGSETTYYNSALKSRLTISKDTSKNQVVLTMTNMDPVDTATYYCAKHYYYGGSYAMDYWGQGTTVTVSSGGGGSGGGGSGGGGSEIVLTQSPATLSLSPGERATLSCRASQDISKYLNWYQQKPGQAPRLLIYHTSRLHSGIPDRFSGSGSGTDFTLTISRLEPEDIAVYYCQQGNTLPYTFGQGTKLEITTTPAPRPPTPAPTIASQPLSLRPEACRPAAGGAVHTRGLDFACDIYIWAPLAGTCGVLLLSLVITLYCKRGRKKLLYIFKQPFMRPVQTTQEEDGCSCRFPEEEEGGCELRVKFSRSADAPAYKQGQNQLYNELNLGRREEYDVLDKRRGRDPEMGGKPRRKNPQEGLYNELQKDKMAEAYSEIGMKGERRRGKGHDGLYQGLSTATKDTYDALHMQALPPR
notes: Tandem bispecific chimeric antigen receptor on human T cells; built here from its parts without the signal peptide; also called TanCAR 01 CAR-T
With B2 the “lysis rate of Nalm6-luc cells by CAR-T cells, ratio 0.25:1” value [1] was 46.1%, the “lysis rate of Nalm6-luc cells by CAR-T cells, ratio 0.5:1” value [1] was 40% and the “lysis rate of Nalm6-luc cells by CAR-T cells, ratio 1:1” value [1] was 56.8%. The “lysis rate of Nalm6-luc cells by CAR-T cells, ratio 2:1” value [1] was 80.6%, the “Positive rate of binding to CD19” value (human CD19 (antigen)) was 10.6% and the “lysis rate of CHO-K1-BCMA-luc cells by CAR-T cells, ratio 0.25:1” value [2] was 31.3%. The “lysis rate of CHO-K1-BCMA-luc cells by CAR-T cells, ratio 0.5:1” value [2] was 34.3%, the “lysis rate of CHO-K1-BCMA-luc cells by CAR-T cells, ratio 1:1” value [2] was 63.2% and the “lysis rate of CHO-K1-BCMA-luc cells by CAR-T cells, ratio 2:1” value [2] was 71%. For the same binder, the “Positive rate of binding to BCMA” value (human BCMA (antigen)) was 11.3%.

B3: TanCAR 04 (other)
chain: QVTLRESGPALVKPTQTLTLTCTFSGVSLPDYGVSWIRQPPGKALEWLAVIWGSETTYYNSALKSRLTISKDTSKNQVVLTMTNMDPVDTATYYCAKHYYYGGSYAMDYWGQGTTVTVSSGGGGSGGGGSGGGGSEIVLTQSPATLSLSPGERATLSCRASQDISKYLNWYQQKPGQAPRLLIYHTSRLHSGIPDRFSGSGSGTDFTLTISRLEPEDIAVYYCQQGNTLPYTFGQGTKLEIEAAAKEAAAKEAAAKDIVMTQSPLSLPVTPGEPASISCRSSQSLVHSNGNTFLHWYLQKPGQSPQLLIYKVSNRFSGVPDRFSGSGSGTDFTLKISRVEAEDVGVYYCMQSTHVLTFGGGTKLEIKRAGGGGSGGGGSGGGGSQVQLVQSGAEVKKPGASVKVSCKASGYTFTDYLMHWVRQAPGQGLEWMGWINTETGEPTYADDFKGRVTMTRDTSTSTVYMELSSLRSEDTAVYYCAPSLYYGYSWFTYWGQGTLVTVSTTTPAPRPPTPAPTIASQPLSLRPEACRPAAGGAVHTRGLDFACDIYIWAPLAGTCGVLLLSLVITLYCKRGRKKLLYIFKQPFMRPVQTTQEEDGCSCRFPEEEEGGCELRVKFSRSADAPAYKQGQNQLYNELNLGRREEYDVLDKRRGRDPEMGGKPRRKNPQEGLYNELQKDKMAEAYSEIGMKGERRRGKGHDGLYQGLSTATKDTYDALHMQALPPR
notes: Tandem bispecific chimeric antigen receptor on human T cells; built here from its parts without the signal peptide; also called TanCAR 04 CAR-T
B3 was tested, and the “lysis rate of Nalm6-luc cells by CAR-T cells, ratio 0.25:1” value [1] was 72.7%, the “lysis rate of Nalm6-luc cells by CAR-T cells, ratio 0.5:1” value [1] was 55.8% and the “lysis rate of Nalm6-luc cells by CAR-T cells, ratio 1:1” value [1] was 68.9%. For the same binder, the “lysis rate of Nalm6-luc cells by CAR-T cells, ratio 2:1” value [1] was 84.1%, the “Positive rate of binding to CD19” value (human CD19 (antigen)) was 16.1% and the “lysis rate of CHO-K1-BCMA-luc cells by CAR-T cells, ratio 0.25:1” value [2] was 36.4%. The “lysis rate of CHO-K1-BCMA-luc cells by CAR-T cells, ratio 0.5:1” value [2] was 52.6%, the “lysis rate of CHO-K1-BCMA-luc cells by CAR-T cells, ratio 1:1” value [2] was 68.9% and the “lysis rate of CHO-K1-BCMA-luc cells by CAR-T cells, ratio 2:1” value [2] was 84.1%. For the same binder, the “Positive rate of binding to BCMA” value (human BCMA (antigen)) was 15.9%.

B4: TanCAR 03 (other)
chain: QVTLRESGPALVKPTQTLTLTCTFSGVSLPDYGVSWIRQPPGKALEWLAVIWGSETTYYNSALKSRLTISKDTSKNQVVLTMTNMDPVDTATYYCAKHYYYGGSYAMDYWGQGTTVTVSSGGGGSGGGGSGGGGSEIVLTQSPATLSLSPGERATLSCRASQDISKYLNWYQQKPGQAPRLLIYHTSRLHSGIPDRFSGSGSGTDFTLTISRLEPEDIAVYYCQQGNTLPYTFGQGTKLEIGGGGSGGGGSGGGGSGGGGSDIVMTQSPLSLPVTPGEPASISCRSSQSLVHSNGNTFLHWYLQKPGQSPQLLIYKVSNRFSGVPDRFSGSGSGTDFTLKISRVEAEDVGVYYCMQSTHVLTFGGGTKLEIKRAGGGGSGGGGSGGGGSQVQLVQSGAEVKKPGASVKVSCKASGYTFTDYLMHWVRQAPGQGLEWMGWINTETGEPTYADDFKGRVTMTRDTSTSTVYMELSSLRSEDTAVYYCAPSLYYGYSWFTYWGQGTLVTVSTTTPAPRPPTPAPTIASQPLSLRPEACRPAAGGAVHTRGLDFACDIYIWAPLAGTCGVLLLSLVITLYCKRGRKKLLYIFKQPFMRPVQTTQEEDGCSCRFPEEEEGGCELRVKFSRSADAPAYKQGQNQLYNELNLGRREEYDVLDKRRGRDPEMGGKPRRKNPQEGLYNELQKDKMAEAYSEIGMKGERRRGKGHDGLYQGLSTATKDTYDALHMQALPPR
notes: Tandem bispecific chimeric antigen receptor on human T cells; built here from its parts without the signal peptide; also called TanCAR 03 CAR-T
B4 was tested, and the “lysis rate of Nalm6-luc cells by CAR-T cells, ratio 0.25:1” value [1] was 54.3%, the “lysis rate of Nalm6-luc cells by CAR-T cells, ratio 0.5:1” value [1] was 57.7% and the “lysis rate of Nalm6-luc cells by CAR-T cells, ratio 1:1” value [1] was 72.1%. For the same binder, the “lysis rate of Nalm6-luc cells by CAR-T cells, ratio 2:1” value [1] was 89.1%, the “Positive rate of binding to CD19” value (human CD19 (antigen)) was 8.99% and the “lysis rate of CHO-K1-BCMA-luc cells by CAR-T cells, ratio 0.25:1” value [2] was 17.8%. For the same binder, the “lysis rate of CHO-K1-BCMA-luc cells by CAR-T cells, ratio 0.5:1” value [2] was 27.6%, the “lysis rate of CHO-K1-BCMA-luc cells by CAR-T cells, ratio 1:1” value [2] was 40.5% and the “lysis rate of CHO-K1-BCMA-luc cells by CAR-T cells, ratio 2:1” value [2] was 52.1%. For the same binder, the “Positive rate of binding to BCMA” value (human BCMA (antigen)) was 6.07%.

B5: H-BCMA CAR (other)
chain: DIVMTQSPLSLPVTPGEPASISCRSSQSLVHSNGNTFLHWYLQKPGQSPQLLIYKVSNRFSGVPDRFSGSGSGTDFTLKISRVEAEDVGVYYCMQSTHVLTFGGGTKLEIKRAGGGGSGGGGSGGGGSQVQLVQSGAEVKKPGASVKVSCKASGYTFTDYLMHWVRQAPGQGLEWMGWINTETGEPTYADDFKGRVTMTRDTSTSTVYMELSSLRSEDTAVYYCAPSLYYGYSWFTYWGQGTLVTVSTTTPAPRPPTPAPTIASQPLSLRPEACRPAAGGAVHTRGLDFACDIYIWAPLAGTCGVLLLSLVITLYCKRGRKKLLYIFKQPFMRPVQTTQEEDGCSCRFPEEEEGGCELRVKFSRSADAPAYKQGQNQLYNELNLGRREEYDVLDKRRGRDPEMGGKPRRKNPQEGLYNELQKDKMAEAYSEIGMKGERRRGKGHDGLYQGLSTATKDTYDALHMQALPPR
notes: Chimeric antigen receptor on human T cells; built here from its parts without the signal peptide; also called H-BCMA CAR-T; BCMA CAR-T
B5 was tested, and the “Positive rate of binding to CD19” value (human CD19 (antigen)) was 0.31%, the “lysis rate of CHO-K1-BCMA-luc cells by CAR-T cells, ratio 0.25:1” value [2] was 0% and the “lysis rate of CHO-K1-BCMA-luc cells by CAR-T cells, ratio 0.5:1” value [2] was 27%. The “lysis rate of CHO-K1-BCMA-luc cells by CAR-T cells, ratio 1:1” value [2] was 40.7%, the “lysis rate of CHO-K1-BCMA-luc cells by CAR-T cells, ratio 2:1” value [2] was 77.9% and the “Positive rate of binding to BCMA” value (human BCMA (antigen)) was 26.9%.
